This is an account of results in PMC3176717 (Biochemistry, 2011).

Like-named read-outs stand apart in the source and are kept apart here.

Series [1] concerns the molecule itself. Kind of series: AUC.
Series [2] concerns the molecule itself. Description: AUC. The source holds these as a separate data set.

B1: wild type human Prx I (peroxiredoxin I), reduced, non-glutathionylated (enzyme, UniProt Q06830 1-199, looked up)
chain: MSSGNAKIGHPAPNFKATAVMPDGQFKDISLSDYKGKYVVFFFYPLDFTFVCPTEIIAFSDRAEEFKKLNCQVIGASVDSHFCHLAWVNTPKKQGGLGPMNIPLVSDPKRTIAQDYGVLKADEGISFRGLFIIDDKGILRQITVNDLPVGRSVDETLRLVQAFQFTDKHGEVCPAGWKPGSDTIKPDVQKSKEYFSKQK
On to B1, for which the “stoichiometry N” value in the series “AUC [1]” was found to be 10.

B2: human Prx I (C52S/C173S) double mutant, reduced (enzyme, UniProt Q06830 1-199, looked up)
chain: MSSGNAKIGHPAPNFKATAVMPDGQFKDISLSDYKGKYVVFFFYPLDFTFVSPTEIIAFSDRAEEFKKLNCQVIGASVDSHFCHLAWVNTPKKQGGLGPMNIPLVSDPKRTIAQDYGVLKADEGISFRGLFIIDDKGILRQITVNDLPVGRSVDETLRLVQAFQFTDKHGEVSPAGWKPGSDTIKPDVQKSKEYFSKQK
As to B2, the “stoichiometry N” value in “AUC [1]” came out at 10.

B3: glutathionylated Prx I (C83S) mutant (enzyme, human, UniProt Q06830 1-199, looked up)
chain: MSSGNAKIGHPAPNFKATAVMPDGQFKDISLSDYKGKYVVFFFYPLDFTFVCPTEIIAFSDRAEEFKKLNCQVIGASVDSHFSHLAWVNTPKKQGGLGPMNIPLVSDPKRTIAQDYGVLKADEGISFRGLFIIDDKGILRQITVNDLPVGRSVDETLRLVQAFQFTDKHGEVCPAGWKPGSDTIKPDVQKSKEYFSKQK
modifications: glutathionylated by disulfide exchange with GSSG; sites not stated for this mutant
With B3, the “stoichiometry N” value in the series “AUC [2]” was determined as 2.
